*1 amine or outer side, *2 acyl side, *3 side chain or, on linkers, in order; H or OH if unused. Where no end group is shown, it is not given here. Side-chain parts run from the residue outwards. [ ]: non-standard residue; d: D form. The star is where a group is joined. C16 diacid = O=C(O)CCCCCCCCCCCCCCC(=O)*; γGlu = O=C(O)[C@H](CCC(=O)[*:2])N[*:1]; Palmitoyl = CCCCCCCCCCCCCCCC(=O)*; Decanoyl = CCCCCCCCCC(=O)*; Aib = CC(C)(N)C(=O)O
T1: human glucose-dependent insulinotropic polypeptide receptor (human, UniProt P48546 22-466)
T1 sequence (looked up): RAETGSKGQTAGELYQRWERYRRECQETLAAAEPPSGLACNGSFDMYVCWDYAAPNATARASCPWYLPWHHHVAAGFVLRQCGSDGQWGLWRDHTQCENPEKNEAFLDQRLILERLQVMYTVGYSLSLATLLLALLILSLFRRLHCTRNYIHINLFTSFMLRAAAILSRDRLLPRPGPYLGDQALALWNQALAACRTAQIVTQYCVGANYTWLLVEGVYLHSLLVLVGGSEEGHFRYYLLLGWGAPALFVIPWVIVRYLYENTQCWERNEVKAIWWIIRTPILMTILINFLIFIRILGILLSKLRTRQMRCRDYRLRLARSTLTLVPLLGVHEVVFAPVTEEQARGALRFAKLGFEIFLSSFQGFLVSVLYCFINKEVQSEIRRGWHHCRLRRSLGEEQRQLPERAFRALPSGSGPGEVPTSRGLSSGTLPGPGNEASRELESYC

T2: human glucagon-like peptide-2 receptor (human, UniProt O95838 1-553)
T2 sequence (looked up): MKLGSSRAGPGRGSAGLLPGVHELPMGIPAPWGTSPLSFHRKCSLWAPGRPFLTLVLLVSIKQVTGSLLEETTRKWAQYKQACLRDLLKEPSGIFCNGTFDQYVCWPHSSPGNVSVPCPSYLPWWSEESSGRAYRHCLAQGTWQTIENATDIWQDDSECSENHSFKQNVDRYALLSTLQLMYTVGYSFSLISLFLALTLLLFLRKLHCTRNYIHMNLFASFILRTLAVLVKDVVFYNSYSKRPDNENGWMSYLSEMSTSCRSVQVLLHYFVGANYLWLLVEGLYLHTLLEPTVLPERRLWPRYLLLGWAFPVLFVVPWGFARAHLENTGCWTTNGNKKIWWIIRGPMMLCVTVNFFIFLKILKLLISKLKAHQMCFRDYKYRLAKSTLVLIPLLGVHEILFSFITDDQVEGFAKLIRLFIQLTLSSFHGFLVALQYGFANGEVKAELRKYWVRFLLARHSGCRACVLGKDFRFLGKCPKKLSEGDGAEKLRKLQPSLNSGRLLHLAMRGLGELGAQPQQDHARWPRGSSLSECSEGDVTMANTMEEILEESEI

B1: Compound no. 44 (peptide)
peptide: Decanoyl-H[Aib]DGTFISDYST[Aib]LDNLAARDFINWLIQTKITK-OH
SMILES: CCCCCCCCCC(=O)N[C@@H](Cc1c[nH]cn1)C(=O)NC(C)(C)C(=O)N[C@@H](CC(=O)O)C(=O)NCC(=O)N[C@H](C(=O)N[C@@H](Cc1ccccc1)C(=O)N[C@H](C(=O)N[C@@H](CO)C(=O)N[C@@H](CC(=O)O)C(=O)N[C@@H](Cc1ccc(O)cc1)C(=O)N[C@@H](CO)C(=O)N[C@H](C(=O)NC(C)(C)C(=O)N[C@@H](CC(C)C)C(=O)N[C@@H](CC(=O)O)C(=O)N[C@@H](CC(N)=O)C(=O)N[C@@H](CC(C)C)C(=O)N[C@@H](C)C(=O)N[C@@H](C)C(=O)N[C@@H](CCCNC(=N)N)C(=O)N[C@@H](CC(=O)O)C(=O)N[C@@H](Cc1ccccc1)C(=O)N[C@H](C(=O)N[C@@H](CC(N)=O)C(=O)N[C@@H](Cc1c[nH]c2ccccc12)C(=O)N[C@@H](CC(C)C)C(=O)N[C@H](C(=O)N[C@@H](CCC(N)=O)C(=O)N[C@H](C(=O)N[C@@H](CCCCN)C(=O)N[C@H](C(=O)N[C@H](C(=O)N[C@@H](CCCCN)C(=O)O)[C@@H](C)O)[C@@H](C)CC)[C@@H](C)O)[C@@H](C)CC)[C@@H](C)CC)[C@@H](C)O)[C@@H](C)CC)[C@@H](C)O
B2: Compound no. 34 (peptide)
peptide: Ac-H[Aib]DGTFISDYK([γGlu-Palmitoyl])T[Aib]LDNLAARDFINWLIQTKITK-OH
SMILES: CCCCCCCCCCCCCCCC(=O)N[C@@H](CCC(=O)NCCCC[C@H](NC(=O)[C@H](Cc1ccc(O)cc1)NC(=O)[C@H](CC(=O)O)NC(=O)[C@H](CO)NC(=O)[C@@H](NC(=O)[C@H](Cc1ccccc1)NC(=O)[C@@H](NC(=O)CNC(=O)[C@H](CC(=O)O)NC(=O)C(C)(C)NC(=O)[C@H](Cc1c[nH]cn1)NC(C)=O)[C@@H](C)O)[C@@H](C)CC)C(=O)N[C@H](C(=O)NC(C)(C)C(=O)N[C@@H](CC(C)C)C(=O)N[C@@H](CC(=O)O)C(=O)N[C@@H](CC(N)=O)C(=O)N[C@@H](CC(C)C)C(=O)N[C@@H](C)C(=O)N[C@@H](C)C(=O)N[C@@H](CCCNC(=N)N)C(=O)N[C@@H](CC(=O)O)C(=O)N[C@@H](Cc1ccccc1)C(=O)N[C@H](C(=O)N[C@@H](CC(N)=O)C(=O)N[C@@H](Cc1c[nH]c2ccccc12)C(=O)N[C@@H](CC(C)C)C(=O)N[C@H](C(=O)N[C@@H](CCC(N)=O)C(=O)N[C@H](C(=O)N[C@@H](CCCCN)C(=O)N[C@H](C(=O)N[C@H](C(=O)N[C@@H](CCCCN)C(=O)O)[C@@H](C)O)[C@@H](C)CC)[C@@H](C)O)[C@@H](C)CC)[C@@H](C)CC)[C@@H](C)O)C(=O)O
B3: Compound no. 33 (peptide)
peptide: H[Aib]DGTFISDYK([γGlu-Palmitoyl])T[Aib]LDALAARDFIEWLIQTKITK-OH
modifications: N-terminus assumed
SMILES: CCCCCCCCCCCCCCCC(=O)N[C@@H](CCC(=O)NCCCC[C@H](NC(=O)[C@H](Cc1ccc(O)cc1)NC(=O)[C@H](CC(=O)O)NC(=O)[C@H](CO)NC(=O)[C@@H](NC(=O)[C@H](Cc1ccccc1)NC(=O)[C@@H](NC(=O)CNC(=O)[C@H](CC(=O)O)NC(=O)C(C)(C)NC(=O)[C@@H](N)Cc1c[nH]cn1)[C@@H](C)O)[C@@H](C)CC)C(=O)N[C@H](C(=O)NC(C)(C)C(=O)N[C@@H](CC(C)C)C(=O)N[C@@H](CC(=O)O)C(=O)N[C@@H](C)C(=O)N[C@@H](CC(C)C)C(=O)N[C@@H](C)C(=O)N[C@@H](C)C(=O)N[C@@H](CCCNC(=N)N)C(=O)N[C@@H](CC(=O)O)C(=O)N[C@@H](Cc1ccccc1)C(=O)N[C@H](C(=O)N[C@@H](CCC(=O)O)C(=O)N[C@@H](Cc1c[nH]c2ccccc12)C(=O)N[C@@H](CC(C)C)C(=O)N[C@H](C(=O)N[C@@H](CCC(N)=O)C(=O)N[C@H](C(=O)N[C@@H](CCCCN)C(=O)N[C@H](C(=O)N[C@H](C(=O)N[C@@H](CCCCN)C(=O)O)[C@@H](C)O)[C@@H](C)CC)[C@@H](C)O)[C@@H](C)CC)[C@@H](C)CC)[C@@H](C)O)C(=O)O
B4: Compound no. 5 (peptide)
peptide: Palmitoyl-H[Aib]DGTFISDYST[Aib]LDNLAARDFINWLIQTKITK-OH
SMILES: CCCCCCCCCCCCCCCC(=O)N[C@@H](Cc1c[nH]cn1)C(=O)NC(C)(C)C(=O)N[C@@H](CC(=O)O)C(=O)NCC(=O)N[C@H](C(=O)N[C@@H](Cc1ccccc1)C(=O)N[C@H](C(=O)N[C@@H](CO)C(=O)N[C@@H](CC(=O)O)C(=O)N[C@@H](Cc1ccc(O)cc1)C(=O)N[C@@H](CO)C(=O)N[C@H](C(=O)NC(C)(C)C(=O)N[C@@H](CC(C)C)C(=O)N[C@@H](CC(=O)O)C(=O)N[C@@H](CC(N)=O)C(=O)N[C@@H](CC(C)C)C(=O)N[C@@H](C)C(=O)N[C@@H](C)C(=O)N[C@@H](CCCNC(=N)N)C(=O)N[C@@H](CC(=O)O)C(=O)N[C@@H](Cc1ccccc1)C(=O)N[C@H](C(=O)N[C@@H](CC(N)=O)C(=O)N[C@@H](Cc1c[nH]c2ccccc12)C(=O)N[C@@H](CC(C)C)C(=O)N[C@H](C(=O)N[C@@H](CCC(N)=O)C(=O)N[C@H](C(=O)N[C@@H](CCCCN)C(=O)N[C@H](C(=O)N[C@H](C(=O)N[C@@H](CCCCN)C(=O)O)[C@@H](C)O)[C@@H](C)CC)[C@@H](C)O)[C@@H](C)CC)[C@@H](C)CC)[C@@H](C)O)[C@@H](C)CC)[C@@H](C)O
B5: Compound no. 6 (peptide)
peptide: Palmitoyl-H[Aib]DGTFISDYSTILD[Aib]LAARDFINWLIQTKITK-OH
SMILES: CCCCCCCCCCCCCCCC(=O)N[C@@H](Cc1c[nH]cn1)C(=O)NC(C)(C)C(=O)N[C@@H](CC(=O)O)C(=O)NCC(=O)N[C@H](C(=O)N[C@@H](Cc1ccccc1)C(=O)N[C@H](C(=O)N[C@@H](CO)C(=O)N[C@@H](CC(=O)O)C(=O)N[C@@H](Cc1ccc(O)cc1)C(=O)N[C@@H](CO)C(=O)N[C@H](C(=O)N[C@H](C(=O)N[C@@H](CC(C)C)C(=O)N[C@@H](CC(=O)O)C(=O)NC(C)(C)C(=O)N[C@@H](CC(C)C)C(=O)N[C@@H](C)C(=O)N[C@@H](C)C(=O)N[C@@H](CCCNC(=N)N)C(=O)N[C@@H](CC(=O)O)C(=O)N[C@@H](Cc1ccccc1)C(=O)N[C@H](C(=O)N[C@@H](CC(N)=O)C(=O)N[C@@H](Cc1c[nH]c2ccccc12)C(=O)N[C@@H](CC(C)C)C(=O)N[C@H](C(=O)N[C@@H](CCC(N)=O)C(=O)N[C@H](C(=O)N[C@@H](CCCCN)C(=O)N[C@H](C(=O)N[C@H](C(=O)N[C@@H](CCCCN)C(=O)O)[C@@H](C)O)[C@@H](C)CC)[C@@H](C)O)[C@@H](C)CC)[C@@H](C)CC)[C@@H](C)CC)[C@@H](C)O)[C@@H](C)CC)[C@@H](C)O

These binders were tested against T1, human glucose-dependent insulinotropic … (assay: cell-based or functional assay).

Row | Efficacy GIPR | EC50 (nM) GIPR | Binder
1 | 98% | – | Palmitoyl-HADGTFISDYSTILDNLAARDFINWLLAQKITK [Compound no. 46]
2 | 110% | – | B1
3 | 81% | – | Ac-H[Aib]DGTFISDYK([γGlu-Palmitoyl])T[Aib]LDNLAARDFINWLIQTKITKNDWKHNITQ-OH [Compound no. 38]
4 | 75% | 10 nM | B2
5 | 91% | – | {C16 diacid}-H[Aib]DGTFISDYST[Aib]LDNLAAKDFINWLIQTKITKNDWKHNITQ-OH [Compound no. 42]
6 | 99% | – | {C16 diacid}-HADGTFISDYST[Aib]LDNLAARDFINWLIQTKITKNDWKHNITQ [Compound no. 39]
7 | 80% | – | Palmitoyl-HADGTFISDYSTILDNLAARDFINWLIQTKIT [Compound no. 2]
8 | 91% | – | {C16 diacid}-H[Aib]EGTFISDYST[Aib]LDALAARDFINWLIQTKITKNDWKHNITQ-OH [Compound no. 41]
9 | 101% | – | B3
10 | 94% | 1 nM | {C16 diacid}-H[Aib]DGTFISDYST[Aib]LDNLAARDFINWLIQTKITKNDWKHNITQ-OH [Compound no. 40]

These binders were tested against T2, human glucagon-like peptide-2 receptor (assay: cell-based or functional assay).

Row | Efficacy GLP-2R | EC50 (nM) GLP-2R | logEC50 GLP-2R | Binder
11 | 82% | – | – | Palmitoyl-HADGTFISDYSTILDNLAARDFINWLLAQKITK [Compound no. 46]
12 | 100% | – | – | B1
13 | 89% | – | – | Ac-H[Aib]DGTFISDYK([γGlu-Palmitoyl])T[Aib]LDNLAARDFINWLIQTKITKNDWKHNITQ-OH [Compound no. 38]
14 | 103% | – | – | B2
15 | 93% | – | – | {C16 diacid}-H[Aib]DGTFISDYST[Aib]LDNLAAKDFINWLIQTKITKNDWKHNITQ-OH [Compound no. 42]
16 | 78% | 1 nM | 9 | {C16 diacid}-HADGTFISDYST[Aib]LDNLAARDFINWLIQTKITKNDWKHNITQ [Compound no. 39]
17 | 59% | – | – | Palmitoyl-HADGTFISDYSTILDNLAARDFINWLIQTKIT [Compound no. 2]
18 | 74% | – | 8.8 | {C16 diacid}-H[Aib]EGTFISDYST[Aib]LDALAARDFINWLIQTKITKNDWKHNITQ-OH [Compound no. 41]
19 | 97% | – | – | B3
20 | 96% | – | 9 | {C16 diacid}-H[Aib]DGTFISDYST[Aib]LDNLAARDFINWLIQTKITKNDWKHNITQ-OH [Compound no. 40]

The binders below were run against human GLP-1R (GLP-1 receptor) (human, UniProt P43220 24-463) (assay: cell-based or functional assay).

Row | cAMP assay: Efficacy GLP-1R | cAMP assay: EC50 (nM) GLP-1R | cAMP assay: logEC50 GLP-1R | Binder
21 | 6% | – | – | B4
22 | 34% | 39.8 nM | 7.4 | B5

Reference: patent publication US20250304643A1 (BAINAN BIOTECH, published 2025)
